Columns and labels:
Experiment in all cases: ELISA
Fc-fused ECD of EGFR = Fc-fused ECD of EGFR (Homo sapiens (assumed), UniProt P00533)
Fc-fused ECD of IGF-IR = Fc-fused ECD of IGF-IR (Homo sapiens (assumed), UniProt P08069)
Fc-fused ECD of PDGFRβ = Fc-fused ECD of PDGFRβ (Homo sapiens (assumed), UniProt P09619)
Fc-fused ECD of VEGFR2 = Fc-fused ECD of VEGFR2 (Homo sapiens (assumed), UniProt P35968)
Fc-fused ECD of HER4 = Fc-fused ECD of HER4 (Homo sapiens (assumed), UniProt Q15303)
Fc-fused ECD of HER3 = Fc-fused ECD of HER3 (Homo sapiens (assumed), UniProt P21860)
Chain of Fc-fused ECD of HER3 (P21860 20-643): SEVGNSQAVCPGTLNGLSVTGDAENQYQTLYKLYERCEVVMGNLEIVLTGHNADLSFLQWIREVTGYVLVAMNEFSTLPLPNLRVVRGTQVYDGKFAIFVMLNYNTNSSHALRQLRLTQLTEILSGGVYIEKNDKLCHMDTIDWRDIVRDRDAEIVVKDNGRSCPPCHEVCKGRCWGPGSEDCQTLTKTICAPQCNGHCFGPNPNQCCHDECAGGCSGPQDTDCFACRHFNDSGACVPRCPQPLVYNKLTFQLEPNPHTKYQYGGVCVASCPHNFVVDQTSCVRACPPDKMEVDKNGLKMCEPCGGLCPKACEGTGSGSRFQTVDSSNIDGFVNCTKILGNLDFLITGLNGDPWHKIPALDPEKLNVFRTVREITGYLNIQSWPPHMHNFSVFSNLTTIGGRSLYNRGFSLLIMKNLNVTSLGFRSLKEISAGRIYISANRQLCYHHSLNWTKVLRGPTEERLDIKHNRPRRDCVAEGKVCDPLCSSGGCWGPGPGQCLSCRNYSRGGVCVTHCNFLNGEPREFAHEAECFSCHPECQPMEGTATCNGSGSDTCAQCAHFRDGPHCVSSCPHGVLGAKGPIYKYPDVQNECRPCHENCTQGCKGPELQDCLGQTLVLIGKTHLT

[1] = biological target: Fc-fused ECD of FGFR3 (IIIc) (Homo sapiens (assumed), UniProt P22607)
Chain of Fc-fused ECD of FGFR3 (IIIc) (P22607 23-375): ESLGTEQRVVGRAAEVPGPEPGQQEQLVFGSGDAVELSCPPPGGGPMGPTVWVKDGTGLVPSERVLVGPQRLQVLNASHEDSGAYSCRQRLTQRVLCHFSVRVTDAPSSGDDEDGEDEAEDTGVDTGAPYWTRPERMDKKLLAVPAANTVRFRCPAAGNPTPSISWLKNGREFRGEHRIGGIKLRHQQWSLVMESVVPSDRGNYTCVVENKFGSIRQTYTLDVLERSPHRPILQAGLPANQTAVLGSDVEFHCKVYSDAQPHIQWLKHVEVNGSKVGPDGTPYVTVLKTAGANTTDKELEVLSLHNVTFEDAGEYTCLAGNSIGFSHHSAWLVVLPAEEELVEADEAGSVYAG

HGFR/c-Met ECD-Fc = HGFR/c-Met ECD-Fc (Homo sapiens (assumed), UniProt P08581)
Chain of HGFR/c-Met ECD-Fc (P08581 25-932): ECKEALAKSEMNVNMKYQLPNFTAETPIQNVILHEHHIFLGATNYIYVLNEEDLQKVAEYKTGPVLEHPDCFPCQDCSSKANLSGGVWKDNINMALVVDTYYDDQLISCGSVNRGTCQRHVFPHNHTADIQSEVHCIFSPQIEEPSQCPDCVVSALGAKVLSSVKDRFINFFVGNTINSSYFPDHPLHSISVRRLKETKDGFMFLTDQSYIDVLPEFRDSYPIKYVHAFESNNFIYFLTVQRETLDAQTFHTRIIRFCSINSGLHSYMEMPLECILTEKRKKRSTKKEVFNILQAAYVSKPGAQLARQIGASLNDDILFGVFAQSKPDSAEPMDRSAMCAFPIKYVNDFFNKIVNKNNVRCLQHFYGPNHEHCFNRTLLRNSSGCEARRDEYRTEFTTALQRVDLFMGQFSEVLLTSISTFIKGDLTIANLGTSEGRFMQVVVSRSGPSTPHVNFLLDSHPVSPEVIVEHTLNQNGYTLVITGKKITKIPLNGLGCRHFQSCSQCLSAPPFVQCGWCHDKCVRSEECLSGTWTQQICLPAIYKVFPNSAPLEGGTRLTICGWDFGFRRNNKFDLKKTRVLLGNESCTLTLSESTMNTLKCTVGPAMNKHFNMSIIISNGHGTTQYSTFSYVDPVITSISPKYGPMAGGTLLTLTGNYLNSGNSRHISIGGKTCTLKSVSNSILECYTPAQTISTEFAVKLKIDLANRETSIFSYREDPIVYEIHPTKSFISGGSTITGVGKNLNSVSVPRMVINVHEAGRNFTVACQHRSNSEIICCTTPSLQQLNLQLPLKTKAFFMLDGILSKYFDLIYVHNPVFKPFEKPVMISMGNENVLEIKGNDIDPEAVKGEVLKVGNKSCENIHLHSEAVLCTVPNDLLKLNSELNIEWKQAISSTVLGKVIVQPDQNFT

Measured: binding result

Chain of Fc-fused ECD of IGF-IR (P08069 741-935): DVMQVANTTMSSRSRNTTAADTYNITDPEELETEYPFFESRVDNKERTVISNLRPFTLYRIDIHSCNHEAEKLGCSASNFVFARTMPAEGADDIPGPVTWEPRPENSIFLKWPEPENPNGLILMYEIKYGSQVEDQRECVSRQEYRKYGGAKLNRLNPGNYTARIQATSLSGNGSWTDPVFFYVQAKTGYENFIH
Chain of Fc-fused ECD of HER4 (Q15303 26-651): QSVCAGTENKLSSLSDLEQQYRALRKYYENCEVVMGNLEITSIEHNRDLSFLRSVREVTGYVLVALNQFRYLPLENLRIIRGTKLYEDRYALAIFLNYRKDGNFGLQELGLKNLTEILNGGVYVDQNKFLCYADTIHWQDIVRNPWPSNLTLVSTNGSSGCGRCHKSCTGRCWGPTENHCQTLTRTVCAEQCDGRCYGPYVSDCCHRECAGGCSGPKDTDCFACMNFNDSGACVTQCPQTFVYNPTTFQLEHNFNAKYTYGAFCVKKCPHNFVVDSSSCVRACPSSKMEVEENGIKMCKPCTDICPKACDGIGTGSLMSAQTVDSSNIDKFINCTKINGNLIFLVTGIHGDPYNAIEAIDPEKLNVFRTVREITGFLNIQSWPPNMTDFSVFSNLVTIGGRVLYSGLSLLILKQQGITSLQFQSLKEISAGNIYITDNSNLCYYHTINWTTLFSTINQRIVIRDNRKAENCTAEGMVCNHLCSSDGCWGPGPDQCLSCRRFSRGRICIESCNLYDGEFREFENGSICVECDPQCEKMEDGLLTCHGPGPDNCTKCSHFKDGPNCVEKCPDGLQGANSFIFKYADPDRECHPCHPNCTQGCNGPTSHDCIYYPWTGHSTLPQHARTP
Chain of Fc-fused ECD of PDGFRβ (P09619 33-532): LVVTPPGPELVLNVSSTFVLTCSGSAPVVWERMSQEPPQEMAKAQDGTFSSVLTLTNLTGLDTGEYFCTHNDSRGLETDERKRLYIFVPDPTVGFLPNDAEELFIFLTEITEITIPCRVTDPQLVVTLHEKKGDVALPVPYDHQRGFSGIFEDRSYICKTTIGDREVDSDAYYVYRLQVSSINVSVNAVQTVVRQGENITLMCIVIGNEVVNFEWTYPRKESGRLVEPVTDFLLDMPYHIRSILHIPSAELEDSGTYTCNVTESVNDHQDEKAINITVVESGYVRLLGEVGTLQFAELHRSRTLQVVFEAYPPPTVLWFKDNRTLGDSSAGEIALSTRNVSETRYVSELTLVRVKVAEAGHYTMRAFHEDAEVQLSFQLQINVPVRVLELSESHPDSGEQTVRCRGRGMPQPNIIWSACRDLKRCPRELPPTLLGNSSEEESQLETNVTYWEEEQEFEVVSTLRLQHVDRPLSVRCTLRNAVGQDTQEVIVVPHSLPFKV
Chain of Fc-fused ECD of VEGFR2 (P35968 20-764): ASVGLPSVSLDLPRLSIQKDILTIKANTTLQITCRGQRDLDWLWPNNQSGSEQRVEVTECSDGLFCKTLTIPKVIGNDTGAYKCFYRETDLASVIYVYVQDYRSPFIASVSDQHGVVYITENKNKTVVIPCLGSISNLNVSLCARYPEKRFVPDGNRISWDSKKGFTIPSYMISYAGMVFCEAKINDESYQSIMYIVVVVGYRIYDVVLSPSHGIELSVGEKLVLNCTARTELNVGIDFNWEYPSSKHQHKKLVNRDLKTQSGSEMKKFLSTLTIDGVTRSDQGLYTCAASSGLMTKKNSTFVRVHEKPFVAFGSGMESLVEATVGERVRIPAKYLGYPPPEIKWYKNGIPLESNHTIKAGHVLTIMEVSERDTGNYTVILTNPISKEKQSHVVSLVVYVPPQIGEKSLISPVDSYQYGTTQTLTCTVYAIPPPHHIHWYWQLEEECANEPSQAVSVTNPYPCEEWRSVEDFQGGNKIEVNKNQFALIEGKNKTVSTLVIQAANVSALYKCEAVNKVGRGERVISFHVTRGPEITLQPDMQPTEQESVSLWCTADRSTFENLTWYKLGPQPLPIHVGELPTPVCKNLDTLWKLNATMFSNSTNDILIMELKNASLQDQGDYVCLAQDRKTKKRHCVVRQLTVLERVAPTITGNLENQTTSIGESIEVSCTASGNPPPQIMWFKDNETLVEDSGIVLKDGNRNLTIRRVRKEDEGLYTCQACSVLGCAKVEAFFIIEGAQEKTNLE

B1: AH06, variant of hu4D5 from library LN02, IgG format (antibody, V domains shown)
VH: EVQLVESGGGLVQPGGSLRLSCAASGFNIKDTYIHWVRQAPGKGLEWVARIYPTNGYTRYADSVKGRFTISADTSKNTAYLQMNSLRAEDTAVYYCSRWGGWGFYAFALWGQGTLVTVSS
VL: not shown
no binding (tested: 30 nM): all assays above
